According to patent publication US20180371065A1:

Legend:
[1] = target: human α-synuclein, full length, wild type (human) (UniProt P37840); assay: direct ELISA, 100 ng/ml coating of full length α-synuclein
[2] = target: human α-synuclein, full length, wild type (human) (UniProt P37840); assay: direct ELISA, 20 µg/ml coating of full length α-synuclein

EC50 [1]: 0.099 nM
EC50 [2]: 0.335 nM
Substance: antibody Syn211 (Sigma)
